In publication PMC6940360:

Target: Taxol-stabilized microtubules (MTs) from HeLa S3 cells (human (endogenous in HeLa S3)) (UniProt P68363)
Assay: solid-state NMR (J-based 2D 15N-HSQC); unlabeled MAP7-MTBD added to [13C,15N]-labeled MTs at molar ratio 2:1 MAP7-MTBD:MT in BRB80 with 20 uM taxol, 30 °C for 30 min, pelleted at 180,000 x g; MAS 44 kHz, actual temperature 293 K; bound population from a two-state model, P_bound = 1 - I_bound/I_free

bound population of alpha-tubulin Tyr451 (P bound): 65% | bound population of beta-tubulin Ala444 (P bound): 25% | bound population of tail residues around the EGE and FGE segments (P bound): < 80%
B1: MAP7-MTBD (microtubule-binding domain of MAP7D3, residues 59-170) (domain or fragment)
chain: DGSMLKNDIKQRLARERREEKRRQQDANKETQLLEKERKTKLQYEKQMEERQRKLKERKEKEEQRRIAAEEKRHQKDEAQKEKFTAILYRTLERRRLADDYQQKRWSWGGSA
